According to US20230416798A1 (MBRACE THERAPEUTICS, published 2023):
Values belong to the binder of their own block, whether it stands above or below them.

Key:
Test in all cases: alanine scan, high-throughput flow cytometry; criterion for major residues
[1] = target: T1, GRP78 alanine scan variant at R279 (human, UniProt P11021 19-654)
T1 construct: Member of the alanine scan library of GRP78
Protocol: (§1) To characterize the binding properties of the antibodies described in Example 1 for GRP78, epitope mapping analysis was carried out by alanine scan mutagenesis. An alanine scan library of GRP78 was constructed. Each anti-GRP78 antibody was then screened for binding to each individual GRP78 variant, allowing identification of the target protein residues involved in antibody binding.
(§2) Binding of each test antibody to each GRP78 variant in the alanine scanning library was determined by high-throughput flow cytometry under high stringency conditions (e.g., increased pH, increased salinity, increased temperature and/or increased wash time). Also included in the experiment was a commercially-available monoclonal antibody, 1H11-1H7, which was verified to bind to WT GFR78 on cells and thus determined to be a suitable positive control under these conditions (Thermo Fisher Scientific, Waltham, MA). Antibody binding to each of the GRP78 variant as measured by the fluorescence signal (raw fluorescence data minus the background), was normalized to its binding to the wildtype (WT) GRP78. For each GRP78 variant, such normalized binding to the test antibodies was plotted relative to that to the control antibody.

[2] = target: T2, GRP78 alanine scan variant at R261 (human, UniProt P11021 19-654)
T2 construct: Member of the alanine scan library of GRP78
T2 sequence (P11021 other isoform, or with tags, fused parts or gaps mutant limits assumed): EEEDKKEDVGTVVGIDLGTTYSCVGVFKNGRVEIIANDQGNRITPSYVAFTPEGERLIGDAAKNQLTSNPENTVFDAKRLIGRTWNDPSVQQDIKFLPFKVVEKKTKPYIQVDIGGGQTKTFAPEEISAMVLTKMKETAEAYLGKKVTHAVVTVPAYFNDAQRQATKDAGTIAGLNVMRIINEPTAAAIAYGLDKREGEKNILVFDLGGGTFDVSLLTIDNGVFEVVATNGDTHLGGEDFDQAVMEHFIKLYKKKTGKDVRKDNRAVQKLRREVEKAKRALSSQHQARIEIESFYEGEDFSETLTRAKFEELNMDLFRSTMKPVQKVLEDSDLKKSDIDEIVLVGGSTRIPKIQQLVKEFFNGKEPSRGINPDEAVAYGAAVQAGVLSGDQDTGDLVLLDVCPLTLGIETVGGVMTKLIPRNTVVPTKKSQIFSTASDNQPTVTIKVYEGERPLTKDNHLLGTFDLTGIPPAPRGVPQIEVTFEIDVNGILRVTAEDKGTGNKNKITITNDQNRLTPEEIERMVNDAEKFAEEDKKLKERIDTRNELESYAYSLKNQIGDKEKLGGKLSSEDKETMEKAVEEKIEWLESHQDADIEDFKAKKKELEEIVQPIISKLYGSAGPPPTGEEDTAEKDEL
Protocol: as §1, §2

[3] = target: T3, GRP78 alanine scan variant at H265 (human, UniProt P11021 19-654)
T3 construct: Member of the alanine scan library of GRP78
T3 sequence (P11021 other isoform, or with tags, fused parts or gaps mutant limits assumed): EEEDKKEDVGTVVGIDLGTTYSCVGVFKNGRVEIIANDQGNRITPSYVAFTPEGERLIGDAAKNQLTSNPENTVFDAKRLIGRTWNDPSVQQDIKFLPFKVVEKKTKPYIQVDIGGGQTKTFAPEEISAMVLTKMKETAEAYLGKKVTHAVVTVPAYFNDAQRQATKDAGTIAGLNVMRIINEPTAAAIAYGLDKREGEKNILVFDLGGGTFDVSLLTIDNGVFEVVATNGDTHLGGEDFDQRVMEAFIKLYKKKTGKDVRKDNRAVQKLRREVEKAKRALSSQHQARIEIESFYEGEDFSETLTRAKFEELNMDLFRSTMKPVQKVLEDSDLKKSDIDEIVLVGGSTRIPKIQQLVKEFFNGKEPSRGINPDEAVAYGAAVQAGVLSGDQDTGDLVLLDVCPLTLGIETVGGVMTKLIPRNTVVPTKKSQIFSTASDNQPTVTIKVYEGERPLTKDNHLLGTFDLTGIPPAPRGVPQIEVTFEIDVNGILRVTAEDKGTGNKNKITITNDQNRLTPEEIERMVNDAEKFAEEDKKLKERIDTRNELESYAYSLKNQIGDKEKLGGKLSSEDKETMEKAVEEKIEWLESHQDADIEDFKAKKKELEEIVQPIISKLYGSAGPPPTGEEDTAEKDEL
Protocol: as §1, §2

[4] = target: T4, GRP78 alanine scan variant at E329 (human, UniProt P11021 19-654)
T4 construct: Member of the alanine scan library of GRP78
T4 sequence (P11021 other isoform, or with tags, fused parts or gaps mutant limits assumed): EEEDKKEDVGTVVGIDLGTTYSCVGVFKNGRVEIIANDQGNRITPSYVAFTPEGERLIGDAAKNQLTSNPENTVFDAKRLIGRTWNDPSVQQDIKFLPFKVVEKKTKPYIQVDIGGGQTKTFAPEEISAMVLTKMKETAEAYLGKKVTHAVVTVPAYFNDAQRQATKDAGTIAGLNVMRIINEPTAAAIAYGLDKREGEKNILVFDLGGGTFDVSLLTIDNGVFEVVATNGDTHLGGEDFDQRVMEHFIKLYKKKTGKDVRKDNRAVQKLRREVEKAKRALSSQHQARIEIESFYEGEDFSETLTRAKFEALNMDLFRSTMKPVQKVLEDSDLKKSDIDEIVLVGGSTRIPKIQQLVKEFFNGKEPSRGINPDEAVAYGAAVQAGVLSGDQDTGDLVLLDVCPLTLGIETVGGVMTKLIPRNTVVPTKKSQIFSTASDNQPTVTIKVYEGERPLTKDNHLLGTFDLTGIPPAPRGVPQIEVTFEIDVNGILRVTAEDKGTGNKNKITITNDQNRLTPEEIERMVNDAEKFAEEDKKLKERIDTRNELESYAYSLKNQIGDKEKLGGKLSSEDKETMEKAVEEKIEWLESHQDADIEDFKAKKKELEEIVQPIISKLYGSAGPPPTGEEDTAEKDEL
Protocol: as §1, §2

T1 sequence (P11021 other isoform, or with tags, fused parts or gaps mutant limits assumed): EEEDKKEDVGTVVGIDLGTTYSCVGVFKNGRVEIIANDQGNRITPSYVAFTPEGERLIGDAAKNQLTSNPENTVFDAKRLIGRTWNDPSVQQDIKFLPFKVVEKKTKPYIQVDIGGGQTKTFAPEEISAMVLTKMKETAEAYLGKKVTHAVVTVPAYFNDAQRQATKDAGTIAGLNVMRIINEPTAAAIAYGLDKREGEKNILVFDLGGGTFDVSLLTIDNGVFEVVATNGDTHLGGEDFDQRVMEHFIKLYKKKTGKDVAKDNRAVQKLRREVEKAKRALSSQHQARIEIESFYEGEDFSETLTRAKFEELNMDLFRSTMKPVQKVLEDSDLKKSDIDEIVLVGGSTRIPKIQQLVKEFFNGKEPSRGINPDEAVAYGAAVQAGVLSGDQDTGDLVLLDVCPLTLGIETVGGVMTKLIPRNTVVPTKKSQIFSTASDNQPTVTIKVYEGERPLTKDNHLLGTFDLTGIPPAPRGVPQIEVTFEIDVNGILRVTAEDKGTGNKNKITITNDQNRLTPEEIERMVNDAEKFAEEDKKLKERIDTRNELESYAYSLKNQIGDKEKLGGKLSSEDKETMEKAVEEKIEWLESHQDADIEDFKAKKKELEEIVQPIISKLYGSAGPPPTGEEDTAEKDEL

- binding normalized to wildtype (WT) GRP78 [1]: < 20%
- binding normalized to wildtype (WT) GRP78 [2]: < 20%
B1: anti-GRP78 antibody clone F6 (antibody, IgG1, V domains shown)
VH: QVQLQQSGPGLVKPPQTLSLTCAISGDSVSSNSAAWNWIRQSPSRGLEWLGRTYYRSKWYNDYAVSVKSRITINPDTSKNQFSLQLNSVTPEDTAVYYCARDPYYYDSSGYYYFDAFDIWGQGTMVTVSS
VL: SYELTQPHSVSVAPGQTARITCGGDNIGSKSVHWYQQRPGQAPVLVVYDDSDRPSGIPERFSGSNSENTATLTISGVEAGDEADYYCQVWDSTSHHVVFGGGTKLTVL
notes: Fully human mAb formatted as full-length IgG1; also called F6 mAb; Anti-GRP78 (F6)

- binding normalized to wildtype (WT) GRP78 [3]: < 20%
- binding normalized to wildtype (WT) GRP78 [2]: < 20%
- binding normalized to wildtype (WT) GRP78 [4]: < 20%
B2: anti-GRP78 antibody clone B4 (antibody, IgG1, V domains shown)
VH: QVRLQESGPGLVKPSQTLSLTCTVSGGSISSGGYYWSWIRQHPGKGLEWIGYIYYSGSTYYNPSLESRVTISVDTSKNQFSLKLSSVTAADTAVYYCARYSSIDAFEIWGQGTMVTVSS
VL: SYVLTQPPSVSVAPGKTATITCGGDDIGSKSVHWYQQKPGQAPVLVVYDDGDRPSGIPERFSGSNSGNTATLAISRVEAGDEADYYCQVWDSSSDQYVFGSGTKLTVL
notes: Fully human mAb formatted as full-length IgG1; also called B4 mAb
